Laboratory results: patent publication CN115232210A (SHANGDONG NEW TIME PHARM PROD, dated 2022)

Assays:
重组人CD40-his蛋白 = molecular target: T1, 重组人CD40-his蛋白 (human, UniProt P25942 21-193); test: BLI (Fortebio Blitz), antibody on AMC sensor, huCD40-his 6.25-200 nM
T1 construct: extracellular domain; Recombinant protein; also called 人CD40(ECD)-his; huCD40-his; not shown: his tag

HEK293T细胞表达的人CD40 = molecular target: T2, HEK293T细胞表达的人CD40 (human, UniProt P25942 21-277); test: flow cytometry on 293T-huCD40 cells
T2 construct: whole, on cells; also called HEK293T-huCD40
T2 sequence (P25942 21-277): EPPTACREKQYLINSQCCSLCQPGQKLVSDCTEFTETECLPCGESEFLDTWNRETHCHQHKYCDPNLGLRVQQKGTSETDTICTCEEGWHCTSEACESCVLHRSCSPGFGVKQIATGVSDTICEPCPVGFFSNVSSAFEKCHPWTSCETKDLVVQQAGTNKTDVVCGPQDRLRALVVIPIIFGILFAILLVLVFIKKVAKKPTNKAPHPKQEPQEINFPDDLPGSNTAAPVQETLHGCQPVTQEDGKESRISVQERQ

T1 sequence (P25942 21-193): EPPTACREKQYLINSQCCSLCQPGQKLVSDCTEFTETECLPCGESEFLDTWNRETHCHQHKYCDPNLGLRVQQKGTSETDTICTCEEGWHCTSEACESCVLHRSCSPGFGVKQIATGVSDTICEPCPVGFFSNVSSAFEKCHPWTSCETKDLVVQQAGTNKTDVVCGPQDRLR

B1: 嵌合抗体C42 (antibody, human IgG1, kappa, V domains shown)
VH: QVQLKQSGPGLVQPSQSLSITCTVSGFSLTSYGVHWVRQSPGKGLEWLGMIWSGGSTDYNSAFISRLSISKDNFKSQVFFKMNSLQADDTAIYYCARVGGDYWGQGTTVTVSS
VL: DIVITQTPLSLPVSLGDPASISCRSSQSLVHSRGNTYLHWFLQKPGQSPKLLIYKVSNRFSGVPDRFSGSGSGTDFTLRISRLEAEDLGVYFCFQTTHVPWTFGGGTKLEIKR
notes: Mouse-human chimeric IgG1/kappa expressed in Expi-293 cells; also called 42Chimeric; 抗体42D11-8的嵌合抗体
重组人CD40-his蛋白
  Kd: 13.5 nM
  koff: 0.00524 s⁻¹
  kon: 389000 M⁻¹ s⁻¹

B2: 嵌合抗体C31 (antibody, human IgG1, kappa, V domains shown)
VH: QVQLKESGPGLVQPSQSLSITCTVSGFSLTNYSVHWVRQSPGKGLEWLGMIWSGGSTDYNAAFISRLSISKDNFKSQVFFKMNSLQADDTAIYYCARVGGDYWGQGTTVTVSS
VL: DVLMTQTPLSLPVSLGDPASISCRSSQSLLHSRGNTYLHWFLQKPGQSPKLLIYKVSNRFSGVPDRFSGSGSGTDFTLRISRVEAEDLGVYFCFQTTHVPWTFGGGTKLEIKR
notes: Mouse-human chimeric IgG1/kappa expressed in Expi-293 cells; also called 31Chimeric; 抗体31A2-2的鼠人嵌合抗体
重组人CD40-his蛋白
  Kd: 4.52 nM
  koff: 0.000395 s⁻¹
  kon: 87500 M⁻¹ s⁻¹

B3: APX005M (antibody, V domains shown)
VH: QVQLVESGGGVVQPGRSLRLSCAASGFSFSSTYVCWVRQAPGKGLEWIACIYTGDGTNYSASWAKGRFTISKDSSKNTVYLQMNSLRAEDTAVYFCARPDITYGFAINFWGPGTLVTVSS
VL: DIQMTQSPSSLSASVGDRVTIKCQASQSISSRLAWYQQKPGKPPKLLIYRASTLASGVPSRFSGSGSGTDFTLTISSLQPEDVATYYCQCTGYGISWPIGGGTKVEIK
HEK293T细胞表达的人CD40
  EC50: 0.487 µg/mL
重组人CD40-his蛋白
  Kd: 38.2 nM
  koff: 0.00533 s⁻¹
  kon: 140000 M⁻¹ s⁻¹

B4: 人源化抗体42 (antibody, human IgG1, kappa, V domains shown)
VH: QVQLQESGPGLVKPSQTLSLTCTVSGFSLTSYGVHWVRQHPGKGLEWLGMIWSGGSTDYNSAFISRLTISKDNSKSQVSLKLSSVTAADTAVYYCARVGGDYWGQGTTVTVSS
VL: DIVITQSPLSLPVTLGQPASITCRSSQSLVHSRGNTYLHWFQQRPGQSPRLLIYKVSNRFSGVPDRFSGSGSGTDFTLKISRVEAEDVGVYFCFQTTHVPWTFGQGTRLEIKR
notes: Humanized IgG1/kappa; also called 42D11-8-humanized; 42Humanized
HEK293T细胞表达的人CD40
  EC50: 0.251 µg/mL
重组人CD40-his蛋白
  Kd: 33.2 nM
  koff: 0.00312 s⁻¹
  kon: 94000 M⁻¹ s⁻¹

B5: 人源化抗体31 (antibody, human IgG1, kappa, V domains shown)
VH: QVQLQESGPGLVKPSETLSLTCTVSGFSLTSYSVHWVRQPPGKGLEWLGMIWSGGSTDYNAAFISRLTISKDNSKSQVSLKLSSVTAADTAVYYCARVGGDYWGQGTTVTVSS
VL: DVVMTQSPLSLPVTLGQPASITCRSSQSLLHSRGNTYLHWFQQRPGQSPRLLIYKVSNRFSGVPDRFSGSGSGTDFTLKISRVEAEDVGVYFCFQTTHVPWTFGQGTRLEIKR
notes: Humanized IgG1/kappa; also called 31A2-2-humanized; 31Humanized
HEK293T细胞表达的人CD40
  EC50: 0.297 µg/mL
重组人CD40-his蛋白
  Kd: 16.5 nM
  koff: 0.00223 s⁻¹
  kon: 135000 M⁻¹ s⁻¹
